Assay results taken from article PMC10628450 (Frontiers in Immunology, 2023).

Biological target: T1, NKp46-His6 (Homo sapiens, UniProt O76036)
T1 construct: recombinant human NKp46 (natural cytotoxicity receptor); soluble recombinant receptor; probably the extracellular domain; also called (rh) NKp46; recombinant NKp46-His6; source: bought: AcroBiosystems
Assay: BLI; antibodies loaded at 5 µg/ml on anti-human-Fc (AHC) or anti-human-CH1 (FAB2G) biosensors; antigen in solution (EGFR 3.125-200 nM; NKp46 and NKp30 1.6-100 nM) in kinetics buffer (PBS, 0.1% Tween-20, 1% BSA); 25°C; 1:1 binding model
Conditions: both partners purified

T1 sequence (O76036 22-258): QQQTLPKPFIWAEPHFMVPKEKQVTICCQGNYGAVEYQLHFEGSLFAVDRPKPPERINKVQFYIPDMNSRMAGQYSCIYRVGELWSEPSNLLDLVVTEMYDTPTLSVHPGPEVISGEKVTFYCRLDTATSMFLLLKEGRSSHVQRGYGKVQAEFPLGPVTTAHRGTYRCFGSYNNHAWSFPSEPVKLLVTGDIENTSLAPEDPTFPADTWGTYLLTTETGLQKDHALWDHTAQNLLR

Binder | Kd
Anti-NKp46 IgG (antibody, V domains shown, human IgG1 heavy chain constant region (CH1, hinge, CH2, CH3); numbers count on: EU numbering; IgG1 with LALA; also called parental monospecific anti-NKp46 antibody; anti-NKp46 LALA IgG; source: Expi293 cells, transiently transfected, purified (MabSelect); copies: 2 + 2) VH: QVQLVQSGAEVKKPGSSVKVSCKASGYTFSDYVINWVRQAPGQGLEWMGEIYPGSGTNYYNEKFKAKATITADKSTSTAYMELSSLRSEDTAVYYCARRGRYGLYAMDYWGQGTTVTVSS VL: DIQMTQSPSSLSASVGDRVTITCRASQDISNYLNWYQQKPGKAPKLLIYYTSRLHSGVPSRFSGSGSGTDFTFTISSLQPEDIATYFCQQGNTRPWTFGGGTKVEIK | 1 nM
Anti-NKp46_EF_H05 (bispecific antibody, V domains shown, human IgG1 heavy chain constant region from its start to the KLTV motif before the EF loop of CH3; numbers count on: EU numbering; Gly4Ser linker; anti-EGFR bovine knob H05 (from an ultralong CDR-H3); human IgG1 heavy chain constant region from the RWQQ motif after the EF loop of CH3 to its end; as the light chain of m1; IgG1 with LALA; DKS of the EF loop replaced by G4S-knob-G4S (results); …) VH: QVQLVQSGAEVKKPGSSVKVSCKASGYTFSDYVINWVRQAPGQGLEWMGEIYPGSGTNYYNEKFKAKATITADKSTSTAYMELSSLRSEDTAVYYCARRGRYGLYAMDYWGQGTTVTVSS VL: DIQMTQSPSSLSASVGDRVTITCRASQDISNYLNWYQQKPGKAPKLLIYYTSRLHSGVPSRFSGSGSGTDFTFTISSLQPEDIATYFCQQGNTRPWTFGGGTKVEIK | 3.6 nM
Anti-NKp46_AB_F06 (bispecific antibody, V domains shown, human IgG1 heavy chain constant region from its start to the PPSR motif before the AB loop of CH3; numbers count on: EU numbering; Gly4Ser linker; anti-EGFR bovine knob F06 (from an ultralong CDR-H3); human IgG1 heavy chain constant region from the motif after the AB loop of CH3 (printed as NGVS) to its end; as the light chain of m1; IgG1 with LALA; EEMTK of the AB loop replaced by G4S-knob-G4S; …) VH: QVQLVQSGAEVKKPGSSVKVSCKASGYTFSDYVINWVRQAPGQGLEWMGEIYPGSGTNYYNEKFKAKATITADKSTSTAYMELSSLRSEDTAVYYCARRGRYGLYAMDYWGQGTTVTVSS VL: DIQMTQSPSSLSASVGDRVTITCRASQDISNYLNWYQQKPGKAPKLLIYYTSRLHSGVPSRFSGSGSGTDFTFTISSLQPEDIATYFCQQGNTRPWTFGGGTKVEIK | 2 nM
Anti-NKp46_EF_F06 (bispecific antibody, V domains shown, human IgG1 heavy chain constant region from its start to the KLTV motif before the EF loop of CH3; numbers count on: EU numbering; Gly4Ser linker; anti-EGFR bovine knob F06 (from an ultralong CDR-H3); human IgG1 heavy chain constant region from the RWQQ motif after the EF loop of CH3 to its end; as the light chain of m1; IgG1 with LALA; DKS of the EF loop replaced by G4S-knob-G4S (results); …) VH: QVQLVQSGAEVKKPGSSVKVSCKASGYTFSDYVINWVRQAPGQGLEWMGEIYPGSGTNYYNEKFKAKATITADKSTSTAYMELSSLRSEDTAVYYCARRGRYGLYAMDYWGQGTTVTVSS VL: DIQMTQSPSSLSASVGDRVTITCRASQDISNYLNWYQQKPGKAPKLLIYYTSRLHSGVPSRFSGSGSGTDFTFTISSLQPEDIATYFCQQGNTRPWTFGGGTKVEIK | 3 nM
Anti-NKp46_AB_H05 (bispecific antibody, V domains shown, human IgG1 heavy chain constant region from its start to the PPSR motif before the AB loop of CH3; numbers count on: EU numbering; Gly4Ser linker; anti-EGFR bovine knob H05 (from an ultralong CDR-H3); human IgG1 heavy chain constant region from the motif after the AB loop of CH3 (printed as NGVS) to its end; as the light chain of m1; IgG1 with LALA; EEMTK of the AB loop replaced by G4S-knob-G4S; …) VH: QVQLVQSGAEVKKPGSSVKVSCKASGYTFSDYVINWVRQAPGQGLEWMGEIYPGSGTNYYNEKFKAKATITADKSTSTAYMELSSLRSEDTAVYYCARRGRYGLYAMDYWGQGTTVTVSS VL: DIQMTQSPSSLSASVGDRVTITCRASQDISNYLNWYQQKPGKAPKLLIYYTSRLHSGVPSRFSGSGSGTDFTFTISSLQPEDIATYFCQQGNTRPWTFGGGTKVEIK | 3.4 nM
